Consider one substance from patent US20180127480A1.

Assay [1] concerns the target biotinylated human SIRPα allele 1 domain 1 (a1d1) (human) (UniProt P78324). The experiment in a line: SPR, Biacore T100, biotinylated SIRPα on SA chip, 25 C, 1:1 Langmuir model.
Assay [2] deals with biotinylated human SIRPα allele 2 domain 1 (a2d1) (human) (UniProt P78324). The description is as above.
Chain of biotinylated human SIRPα allele 2 domain 1 (a2d1) (human) (P78324 other isoform, or with tags, fused parts or gaps): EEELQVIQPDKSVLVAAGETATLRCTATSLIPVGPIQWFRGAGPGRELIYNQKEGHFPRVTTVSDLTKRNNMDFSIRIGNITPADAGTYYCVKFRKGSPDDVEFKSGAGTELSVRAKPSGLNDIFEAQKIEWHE

Chain of biotinylated human SIRPα allele 1 domain 1 (a1d1) (human) (P78324 other isoform, or with tags, fused parts or gaps): as above

As a reminder, the Kd is the concentration at which binding is half-saturated. High values mean weaker binding, low ones tighter binding. For the substance “WT CD47 (human CD47 IgSF domain, C15G, C-terminal 8x histidine tag) (from UniProt Q08722 19-135) (ligand)”, the values for the dissociation constant Kd in assay [1] and in assay [2] were 285 nM and 476 nM, respectively.
